The source of these data is patent US5385834.

Data set [1] addresses T7 RNA polymerase (wild-type) (Bacteriophage T7) (UniProt P00573). As to conditions: in vitro transcription, +/-0.003 vs T7 promoter; 80 nM enzyme.
In data set [2] the target is T7 RNA polymerase mutant GP1(lys222) E222K (Bacteriophage T7) (UniProt P00573). The settings on record: in vitro transcription, +/-0.008 vs T7 promoter; 40 nM enzyme; may be nonspecific initiation.

On to T3 promoter plasmid pLM10, for which the figures for the activity in data set [1] and in data set [2] were 0.009 relative and 0.027 relative, respectively.
